One assay concerns the target T1, integrin αVβ8 (human) (human, UniProt P06756 31-992; P26012 43-684).
T1 construct: Integrin heterodimer injected as analyte in SPR; also called avb8
Briefly: SPR, mAb captured on anti-Fc CM5 chip, integrin injected, 37 C, 1:1 fit. How it is done: (§1) Antibodies were assessed by surface plasmon resonance (SPR) for the ability to bind to integrin heterodimers. mAbs were immobilized on an anti-Fc CM5 sensor chip, and integrins (0.39-50 nM for and 200 nM for others) were injected at a flow rate of […] for a contact time of 180 s and dissociation time of 400 s, at 37° C. Data were fit (grey lines) to a 1:1 antibody:ligand binding model to determine Kd.
In general terms: SPR reads the build-up and loss of mass on a sensor chip optically.

For the next assay, the target named is T2, integrin αVβ8 (murine) (murine, UniProt P43406 31-988; Q0VBD0 43-681).
T2 construct: Integrin heterodimer injected as analyte in SPR; also called mαVβ8
The assay is described as above. As for the experimental part: as §1

Assay [1] concerns the target T3, αvβ8 expressed on the surface of LN229 cells (UniProt P06756 31-1048; P26012 43-769).
T3 construct: whole, on cells; also called avb8 on LN229 cells
Briefly: cell-based competition (adhesion) assay: LN229 cells expressing αvβ8 on plate-immobilized L-TGFβ, Crystal Violet readout. How it is done: (§2) Exemplary antibodies of the disclosure were evaluated for their ability to block binding of the latent form of TGFβ (L-TGFβ) to in a cell-based competition assay. TGFβ is ubiquitously expressed in the latent form and L-TGFβ promotes an immune suppressive phenotype within the tumor microenvironment. L-TGFβ was immobilized on a polystyrene plate and incubated with LN229 cells expressing and increasing concentrations of muAb1 for 30 mins at 37° C. Bound LN229 cells were quantified by Crystal Violet. Data were fit to a 4-parameter displacement curve to determine IC₅₀. […] The affinities of the two antibodies are similar as measured in this assay.

Assay [2] addresses T3, αvβ8 expressed on the surface of LN229 …. Nature of the assay: cell-based competition (adhesion) assay: LN229 cells expressing αvβ8 on plate-immobilized L-TGFβ with increasing antibody, bound cells quantified by Crystal Violet, 4-parameter fit. As for the experimental part:
as §2

T3 sequence (P06756 31-1048, chain 1 of 2): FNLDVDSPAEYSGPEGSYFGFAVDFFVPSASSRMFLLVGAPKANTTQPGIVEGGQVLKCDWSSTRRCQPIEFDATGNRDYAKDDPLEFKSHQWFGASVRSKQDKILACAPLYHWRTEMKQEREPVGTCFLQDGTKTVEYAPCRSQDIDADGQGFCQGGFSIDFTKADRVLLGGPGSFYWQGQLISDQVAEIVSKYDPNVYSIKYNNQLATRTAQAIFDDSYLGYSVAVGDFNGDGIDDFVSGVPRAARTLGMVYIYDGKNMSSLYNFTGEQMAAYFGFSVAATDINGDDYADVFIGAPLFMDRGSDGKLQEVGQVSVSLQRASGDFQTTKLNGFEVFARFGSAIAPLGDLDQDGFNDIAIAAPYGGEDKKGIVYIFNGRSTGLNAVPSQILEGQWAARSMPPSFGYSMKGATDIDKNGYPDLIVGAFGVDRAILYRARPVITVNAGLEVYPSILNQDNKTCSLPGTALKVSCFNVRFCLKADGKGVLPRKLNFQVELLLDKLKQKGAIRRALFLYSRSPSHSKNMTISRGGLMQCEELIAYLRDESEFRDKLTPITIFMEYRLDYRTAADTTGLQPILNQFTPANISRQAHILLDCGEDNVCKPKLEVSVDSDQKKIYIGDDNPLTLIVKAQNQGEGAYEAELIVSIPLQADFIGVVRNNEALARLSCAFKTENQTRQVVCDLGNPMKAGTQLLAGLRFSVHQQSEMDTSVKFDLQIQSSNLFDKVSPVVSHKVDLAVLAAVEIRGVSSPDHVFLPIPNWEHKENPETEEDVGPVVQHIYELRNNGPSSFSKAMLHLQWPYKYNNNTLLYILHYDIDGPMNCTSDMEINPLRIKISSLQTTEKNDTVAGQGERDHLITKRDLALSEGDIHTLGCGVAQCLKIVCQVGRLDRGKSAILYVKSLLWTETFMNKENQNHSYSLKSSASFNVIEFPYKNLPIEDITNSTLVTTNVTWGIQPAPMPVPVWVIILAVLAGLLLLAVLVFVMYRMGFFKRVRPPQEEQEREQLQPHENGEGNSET
T3 sequence (P26012 43-769, chain 2 of 2): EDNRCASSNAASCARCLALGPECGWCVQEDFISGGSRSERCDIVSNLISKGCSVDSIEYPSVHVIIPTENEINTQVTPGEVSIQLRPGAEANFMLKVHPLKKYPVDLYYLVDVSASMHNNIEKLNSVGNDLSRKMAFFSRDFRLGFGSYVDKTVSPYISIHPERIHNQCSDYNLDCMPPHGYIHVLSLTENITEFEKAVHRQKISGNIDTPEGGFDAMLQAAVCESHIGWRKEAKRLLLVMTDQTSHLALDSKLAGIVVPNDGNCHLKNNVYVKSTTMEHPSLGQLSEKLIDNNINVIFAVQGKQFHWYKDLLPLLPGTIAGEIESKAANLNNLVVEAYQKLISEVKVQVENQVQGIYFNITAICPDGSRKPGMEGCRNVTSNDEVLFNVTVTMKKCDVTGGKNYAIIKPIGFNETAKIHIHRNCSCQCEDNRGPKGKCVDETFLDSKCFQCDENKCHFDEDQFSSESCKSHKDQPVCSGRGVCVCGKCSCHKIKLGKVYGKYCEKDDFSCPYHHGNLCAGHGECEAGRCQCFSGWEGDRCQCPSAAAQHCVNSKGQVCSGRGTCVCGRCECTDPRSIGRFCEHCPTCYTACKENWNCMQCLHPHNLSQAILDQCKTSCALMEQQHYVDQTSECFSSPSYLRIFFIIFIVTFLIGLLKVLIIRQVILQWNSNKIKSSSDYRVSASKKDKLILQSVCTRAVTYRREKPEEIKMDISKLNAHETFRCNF
T2 sequence (P43406 31-988, chain 1 of 2): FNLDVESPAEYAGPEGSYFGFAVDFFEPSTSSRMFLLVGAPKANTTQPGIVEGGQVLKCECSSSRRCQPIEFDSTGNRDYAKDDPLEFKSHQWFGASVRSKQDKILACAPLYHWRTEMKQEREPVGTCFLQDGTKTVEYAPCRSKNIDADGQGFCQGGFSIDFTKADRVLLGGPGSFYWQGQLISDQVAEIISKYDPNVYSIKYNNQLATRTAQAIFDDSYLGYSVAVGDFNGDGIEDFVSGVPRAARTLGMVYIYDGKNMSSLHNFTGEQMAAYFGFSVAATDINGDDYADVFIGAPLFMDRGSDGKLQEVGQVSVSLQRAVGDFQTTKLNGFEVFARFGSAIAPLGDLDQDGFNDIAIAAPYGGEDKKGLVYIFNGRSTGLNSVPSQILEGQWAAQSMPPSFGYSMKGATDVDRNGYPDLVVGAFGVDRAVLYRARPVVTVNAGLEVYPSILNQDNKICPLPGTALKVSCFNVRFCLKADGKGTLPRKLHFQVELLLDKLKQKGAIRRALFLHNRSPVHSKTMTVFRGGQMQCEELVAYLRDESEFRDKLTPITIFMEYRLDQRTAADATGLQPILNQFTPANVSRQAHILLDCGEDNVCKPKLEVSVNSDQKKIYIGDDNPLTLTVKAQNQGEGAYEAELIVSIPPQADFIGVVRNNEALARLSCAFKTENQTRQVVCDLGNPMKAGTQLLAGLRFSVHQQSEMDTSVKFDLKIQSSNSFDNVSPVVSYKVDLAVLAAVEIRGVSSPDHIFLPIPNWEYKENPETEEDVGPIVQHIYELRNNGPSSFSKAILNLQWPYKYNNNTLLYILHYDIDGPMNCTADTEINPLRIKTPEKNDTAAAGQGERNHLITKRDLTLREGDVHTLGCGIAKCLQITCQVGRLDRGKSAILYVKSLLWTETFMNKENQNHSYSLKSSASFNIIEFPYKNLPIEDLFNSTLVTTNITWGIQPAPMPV
T2 sequence (Q0VBD0 43-681, chain 2 of 2): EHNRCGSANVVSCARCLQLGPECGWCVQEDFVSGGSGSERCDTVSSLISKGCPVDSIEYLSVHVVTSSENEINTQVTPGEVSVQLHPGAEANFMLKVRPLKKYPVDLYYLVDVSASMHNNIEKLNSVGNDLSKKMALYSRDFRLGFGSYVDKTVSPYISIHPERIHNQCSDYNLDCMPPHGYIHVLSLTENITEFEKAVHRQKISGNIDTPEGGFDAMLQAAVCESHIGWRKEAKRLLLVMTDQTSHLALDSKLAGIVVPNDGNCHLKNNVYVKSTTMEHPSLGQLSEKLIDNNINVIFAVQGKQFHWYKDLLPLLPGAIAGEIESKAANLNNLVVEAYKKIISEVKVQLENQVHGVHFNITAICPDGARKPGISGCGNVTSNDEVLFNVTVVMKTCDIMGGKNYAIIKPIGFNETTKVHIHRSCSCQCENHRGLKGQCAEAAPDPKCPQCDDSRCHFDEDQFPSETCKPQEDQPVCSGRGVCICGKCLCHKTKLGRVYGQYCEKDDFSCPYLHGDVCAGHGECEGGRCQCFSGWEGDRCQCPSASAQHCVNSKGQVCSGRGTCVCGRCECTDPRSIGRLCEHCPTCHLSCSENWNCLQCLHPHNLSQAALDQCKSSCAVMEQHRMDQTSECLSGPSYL
T1 sequence (P06756 31-992, chain 1 of 2): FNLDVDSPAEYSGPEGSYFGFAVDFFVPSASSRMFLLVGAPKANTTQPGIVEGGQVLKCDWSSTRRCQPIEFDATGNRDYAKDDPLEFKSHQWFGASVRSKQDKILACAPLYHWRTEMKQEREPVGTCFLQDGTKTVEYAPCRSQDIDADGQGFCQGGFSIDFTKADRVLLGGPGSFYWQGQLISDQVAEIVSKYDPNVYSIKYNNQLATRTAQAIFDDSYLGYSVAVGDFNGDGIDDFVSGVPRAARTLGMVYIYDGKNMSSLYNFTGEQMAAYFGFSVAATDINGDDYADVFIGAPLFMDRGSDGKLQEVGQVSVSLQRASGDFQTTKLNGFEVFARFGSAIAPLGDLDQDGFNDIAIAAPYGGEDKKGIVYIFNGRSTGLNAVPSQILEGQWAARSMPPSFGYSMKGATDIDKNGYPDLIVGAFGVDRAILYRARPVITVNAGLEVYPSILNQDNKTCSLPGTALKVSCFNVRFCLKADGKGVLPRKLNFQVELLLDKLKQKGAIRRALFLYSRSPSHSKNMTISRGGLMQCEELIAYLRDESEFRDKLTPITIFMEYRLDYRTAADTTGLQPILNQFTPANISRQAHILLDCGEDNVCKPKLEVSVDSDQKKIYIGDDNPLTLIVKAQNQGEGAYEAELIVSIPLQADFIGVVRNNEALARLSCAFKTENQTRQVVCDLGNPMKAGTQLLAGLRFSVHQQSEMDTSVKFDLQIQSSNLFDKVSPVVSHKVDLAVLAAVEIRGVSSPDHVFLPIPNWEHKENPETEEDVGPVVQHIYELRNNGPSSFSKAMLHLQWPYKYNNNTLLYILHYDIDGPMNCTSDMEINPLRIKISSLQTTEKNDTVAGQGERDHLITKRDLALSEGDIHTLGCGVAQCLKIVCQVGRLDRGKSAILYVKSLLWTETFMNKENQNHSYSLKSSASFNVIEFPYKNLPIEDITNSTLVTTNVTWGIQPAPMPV
T1 sequence (P26012 43-684, chain 2 of 2): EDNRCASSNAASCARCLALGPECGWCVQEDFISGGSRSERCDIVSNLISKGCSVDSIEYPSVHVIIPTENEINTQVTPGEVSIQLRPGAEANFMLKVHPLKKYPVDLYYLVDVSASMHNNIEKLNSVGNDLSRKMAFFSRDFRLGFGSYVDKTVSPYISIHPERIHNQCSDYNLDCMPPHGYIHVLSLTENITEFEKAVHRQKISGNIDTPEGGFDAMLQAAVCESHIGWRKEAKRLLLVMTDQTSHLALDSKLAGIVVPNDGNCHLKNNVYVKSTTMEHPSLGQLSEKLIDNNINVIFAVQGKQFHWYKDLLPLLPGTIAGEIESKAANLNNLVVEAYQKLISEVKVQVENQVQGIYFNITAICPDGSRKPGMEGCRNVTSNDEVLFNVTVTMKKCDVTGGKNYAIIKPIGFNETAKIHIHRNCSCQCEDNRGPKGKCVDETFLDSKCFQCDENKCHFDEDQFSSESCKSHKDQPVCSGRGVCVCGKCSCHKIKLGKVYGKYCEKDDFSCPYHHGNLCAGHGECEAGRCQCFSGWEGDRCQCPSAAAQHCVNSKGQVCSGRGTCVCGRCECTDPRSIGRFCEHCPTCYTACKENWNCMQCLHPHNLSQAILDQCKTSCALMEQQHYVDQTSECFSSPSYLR

B1: huAb1 (antibody, V domains shown)
VH: QIQLVQSGSELKKPGASVKVSCKASGYTFTKYSMHWVRQAPGQGLEWMARINTETGNPTYADGFRGRFVVSLDTSVSTAYLQISSLKAEDTAVYYCAIFYYGRDTWGQGTTVTVSS
VL: DIVMTQSPDSLAVSLGERATINCKSSQSLLHSRSRKNYLAWYQQKPGQPPKLLIYWASTRESGVPDRFSGSGSGTDFTLTISSLQAEDVAVYYCKQSYNLLSFGQGTKLEIK
notes: also called anti-αvβ8 antibody
By Kd is commonly meant the constant that tells how readily two partners part at equilibrium. Low values mean a tighter complex, high ones a looser complex. Usually IC50 stands for the midpoint of a concentration-inhibition curve. Low values mean higher potency, high ones lower potency. B1: the Kd with integrin αVβ8 (human) and in the assay with integrin αVβ8 (murine) was under 5 nM each time. Moreover, the “IC50 (read off the curve)” value in assay [1] is about 4 nM. In assay [2], this molecule yielded an IC50 of under 5 nM.

B2: muAb1 (antibody, V domains shown)
VH: QIQLVQSGSELKKPGASVKVSCKASGYTFTKYSMHWVRQAPGQGLEWMARINTETGNPTYADGFRGRFVVSLDTSVSTAYLQISSLKAEDTAVYYCAIFYYGRDTWGQGTTVTVSS
VL: DIVMTQSPDSLAVSLGERATINCKSSQSLLHSRSRKNYLAWYQQKPGQPPKLLIYWASTRESGVPDRFSGSGSGTDFTLTISSLQAEDVAVYYCKQSYNLLSFGQGTKLEIK
notes: also called murine-human hybrid monoclonal anti-αVβ8 antibody; murine compatible version of huAb1
Regarding B2, the Kd with integrin αVβ8 (human) and with integrin αVβ8 (murine) was under 15 nM throughout. Moreover, the “IC50 (read off the curve)” value in assay [1] was about 1 nM. Further, the IC50 in assay [2] is under 5 nM.

These data come from patent US20250195647A1 (CORBUS PHARMACEUTICALS, published 2025).
